# Assay: yeast display, Sf9 membrane polyspecificity reagent, FACS + sequencing; frameworks hold sequencing errors
# Summary of the method: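 Nanobodies from a synthetic yeast display library (Saccharomyces cerevisiae BJ5465), induced 36–48 hours with galactose, were stained 1 hour at 4 °C with 10% biotinylated, detergent-solubilized Sf9 membrane reagent, enriched on streptavidin microbeads, then FACS-sorted. Anti-HA (expression) and streptavidin (reagent binding) fluorescence set low and high (top ~1%) gates. Polyreactivity labels come from the gate of origin. Genes were colony-PCR amplified, MiSeq 2 × 250 sequenced and filtered by CDR length.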
row,Sequence,polyreactivity (PSR sort gate)
1,QVQLVESGGGLVQAGGSLRLSCAASGRTLVPYAMGWYRQAPGKERELVAAISNVSSTNYADSVKGRFTISRDNAKNTGYLQMNSLKPEDTAVYYCNAVGVPSEYYSWGQGTQVTVSS,low polyreactivity
2,QVQLVESGGGLVQSGGSLRLSCAASGSTIPPNAMGWYRQAPGKERELVAGISYGGSTTYADSVKGRFTISRDNAKNTVYLQMNSLKPEDTAVYYCAADQPYWRDYDYWGQGTQVTVSS,low polyreactivity
3,QVQLVESGGGLVQAGGRLRLSSAASGLTFPYYAMGWYRQAPGKERELVAVITTSTGTTYYADSVKGRFTISRDNAKNTVYLQMNSLKPEVTAVYYCATDTGAYWYSLYDYWGQGTQVTVSS,low polyreactivity
4,QVQLVESGGGLVQAGGSLRLSWAASGFIFAYYAMGWYTPAPGKERELVAAISKRGGSTYYADSVKGRFTISRDNAKNTVYLQMNSLKPEDTAVYYCAADGHGGYGYWGQGTQVTVSS,high polyreactivity
5,QVQLVESCGGLVQAGGSLRLSCAASGSIFYGNVMGWYRQAPGKERELVAAISSSGGSTYYADSVKGRFTISRDNEKNTVYLQMNRLKPEDSAVYYCAAYWWSRVVRGSRYDYWGQGTHVTVSS,low polyreactivity
6,QVQLVESGGGLVQAGGRLRLSCAASGRIFVIKSMGWYRQAPAKERELVAAISKRGGSTYYADSVKGRFTISRDNAKNTVYLQMNSLKPEDTAVYYCAARFKTTGYDYWGQGTQVTVSS,high polyreactivity
7,LVQLQDSGDGLVQAGGSLRLSCAASGNIFDADIKGWYRQAPGKERELVASIGIGGTTYYADSVKGRFSISRDNEKNTVYLQMNSLKPEDTAVYYCAARYLYYAYSYWGQGTQVTVSS,low polyreactivity
8,KVQLVESGGGLVQARGSLRLSCAASGRIIRYYVMGWYRQAPGKERELVASISWRGTSTYYADSVKGRFTISRDNAKNTVYLQMNSLKPEDTAVYYCNAARPGKNYDSWGQGTQVTVSS,high polyreactivity
9,QLQLVESGGGLVQAGGSLRLSCAASGRIFYYYTMGWYRQAPGKERELVARITGLTGRTYYADSVKGRFTISRDNAKNTVYLQMNSLKPEDTAVYYCNAVLGYYTYDYWGQGTQVTVSS,high polyreactivity
10,QVQLVESGGGLDQAGGSLRLSSAASGSIFLPNAMGWYRQAPGKEREFVADISWTGGRTYYADSVKGRFTISRDNAKHTVYLQMNRLKQEDTAVYYCAAKQYRYGLDYWGQGTQVTVSS,high polyreactivity
11,QVQLVESGGGLVQAGGSLRLSCAASGRIFRYNAMGWYRQAPGKERELVAAISWTVGRTYYADSVKGRFTISRDNAKNTVYLQMNSLKPEDTAVYYCATYFRVWYRSYDYWGQGTQVTVSS,high polyreactivity
12,QVQLVESGGGLVHAGGSLRLSCAASGFTFIRYAMGWYRQAPGKERELVAAIRGTGTSTYYADSVKGRFTISRDNAKNTVYFQMNSLKPEDTAVYYCAAVHWWSSSLGMYYWGQGSQVTVSS,low polyreactivity
13,QVQLVESGGGLVQAAGSLRLSCAASGRIFTPYAMGWYRQAPGKERELVAVIRDGSTYYADSVKGRFTISRDNAKNTVYLQMNSLKPEDTAVYYCRYDIWVWWSGAYDYWGLGTQVTVSS,low polyreactivity
14,QDQLVESGGGLVQSGGSLRLSCAASGFIFPHYAMGWYRPAPGKERELVAAISKSGDSTYYADSVKGRFSISRDNAKNTVYLQMNSLKPEDTAVYYCARRGRSLLWKYDYWRQGTQVTVSS,low polyreactivity
15,QVPLEESGGGLVQAGGSLRLSCAASGFIIGLNAMGWYRQAPGKERELVAVITFSGGSTYYADSVKGRFTISRDNAKNTVFFQMNSLKPEDTAVYYCAARYYWYSVGYGYWGQGTQVTVSS,high polyreactivity
16,QVQLVESGGGLVQAGGSLRLSCAASGFTFYKNTMGWYRQAPGKVRELVAAISSSGSSTYYADSVKGRFTISRDNAKNTVYLQMNSLKPEDTAVYYCAAGRFAYHDDYWGQGTHVTVSS,high polyreactivity
17,QVQLVESGGGLVQAGGSLRLSCAASGSIFRLYAMGWYRQAPGKERELVATITSGGNTYADSVKGRFTISRDNAKNTVYLQMNSLKPEDTAVYYCATTVYAYSYGYEYWGQGTQVTVSS,high polyreactivity
18,QVQLVESGGGLVQAGGSLRLSWAASGSTFDYYAMGWYRQAPGKERELVAAIRWSDGSTYYADSVKGRFTISRDNAKNTVYLQMNSLKPEDTAVYYCAADALYWIGRMDYWGQGTQVTVSS,low polyreactivity
19,QVQLVESGGGLVQAGGSLRLSCAASGFIFYYNVMGWYRQAPGKERELVAAIRYRGTITYYADSVKGRFTISRDNAKNTVYLQMNSLKPEDTAVYYCARRQRNYYRSSPGGDYWGQGTQVTVSS,low polyreactivity
20,QVQLVESGGGLVQAGGSLRLSCAASGLILVYYAMGWYRQAPGKERELVAAITPGGSTKYADSVKGRFTISRDNAKNTVYLQMNSLKPEDTAVYYCYALSGPYWYSVYQSHQDDYWGQGTQVTVSS,low polyreactivity
21,QVQLVESGGCLVQAGGSLRLSCASSGRIFRGYAMGWSRQAPGKERELVAVISYSGTRTYYADSVKGRFTNSRDIAKNTVYLQMNSLKPEETAVYYCNARANGFKDGYWGQGTQVTVSA,high polyreactivity
22,QLQLVESGGGLVQAGGSLRLSCAASGSIFAIYAMGWYRQAPGKERELVAAISDGGGTNYADSVKGRFTISRDNAKNTVYLQMNSLKPEDTAVYYCAADLGWSTYVSNGPKGYDHWGQGTQVTVSS,low polyreactivity
23,QVQLVESGGGLVQAGGSLRLSCAASGRTIYKYMGWDRQAPGKERELVAAIRWSGGSTYYADSVKGRFTISRDNAKNTVYLQMNSLKPEETAVYYCNVDSYGYKYDYWGQGTQVTVSS,low polyreactivity
24,QVQLVESGGGLVQAGGSLRLSCAASGFTVAYYAMGWYRQAPGKERELVAAITGSGGRTYYADSVKGRFTISRDNAKNTVYLQMTSLKPEDTAVYYCAALTGPYKAQVHGGHTPLDYWGHGTQVTVSS,low polyreactivity
25,QVQLVESGGGLVQAGGSLRLSCAAYGNTLDVNAMGWYRQAPGKERELVPAITSGGSTNYADSVKGRFTISRDNAKNTVYLQMNSLKPEDTAVYYCAKGSGVTYVTETLNTDYGYWGQGTQVTVSS,low polyreactivity
26,QVQLVESGGGLVQAGGSLRLSCAASGITFPYYAMGWYRQAPGKERELVAAISDGGSTNYADSVKGRFTISRDNAKNTVYLQMNSLKPEDTAVYYCAADYRYLFDYWGQGTQVTVSS,high polyreactivity
27,QGQLVESWGGLVQAGGSHRLSCAASGRIFVYYAMGWYRQAPGKERELVAGMTGGGNTYYAYSVKVLFTISRDNAKNTGYLQKNSLKPEDTAVYYCAADPIRYRSRHKYGYWGQGTQVTVSS,low polyreactivity
28,QVQLVESGGGLVQAGGSLRLSCAASGGIFGKYVMGWYRQAPGKERELVAGISRSAGITYYADSVKGRFTISRDNAKNTVYLQMNSLKPEDTAVYYCNARAWSYPSYHVGYDYWGQGTQVTVSS,high polyreactivity
29,QVQLVESGGGLVQAGGSLRLSCAASGRIFTSYAMGWYRQAPGKERELVAAINRGGSTYYADSVKGRFTISRDNAKNTVYLQMNSLKPEDTAVYYCAAGTRSRAPYYRTIVDTYGYWGQGTQVTVSS,low polyreactivity
30,QVQLVESGGGLVQAGGSLRLSCAASGSTFDYYDMGWYRQAPGKERELVAAISSGGDSTYYADSVKGRFTISRDNAKNTVYLQMNSLKPEDTAVYYCAAAVYYGQSVWYYYWGQGTQVTVSS,high polyreactivity

# — the nanobody polyreactivity screen of Harvey et al. (2022)
